The results in this text go back to doi:10.1101/2022.03.11.483953 (2022).

As usually defined, the Kd is the constant that tells how readily two partners part at equilibrium. A higher Kd goes with a looser complex.

The target of test [1] is T1, Cdc42^2-178 (C-terminally truncated Cdc42 lacking its geranylgeranylation motif) (UniProt Q05062 2-178). Briefly: FP; GDP-loaded Cdc42.
For test [2], the target named is T1, Cdc42^2-178 (C-terminally truncated …). Briefly: FP; GMPPNP-loaded Cdc42.

No end group written: not given here.

T1 sequence (Q05062 2-178): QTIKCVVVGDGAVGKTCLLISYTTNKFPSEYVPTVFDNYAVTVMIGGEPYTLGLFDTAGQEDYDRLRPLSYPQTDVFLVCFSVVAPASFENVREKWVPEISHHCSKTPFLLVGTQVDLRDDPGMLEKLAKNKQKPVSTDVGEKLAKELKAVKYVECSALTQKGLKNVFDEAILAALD

Take QISTPSDFMHIVHMGPAPVMELQQNFIDLQ (also: FITC label, position not given here) [FITC-labeled CRIB peptide of C. elegans MRCK1 (residues 1543-1572)]: the figures for the Kd in test [1] and in test [2] were 1120 µM and 264 µM, respectively.
